According to patent US20050282743A1, “Molecular interactions in cells” (Arbor Vita Corporation, priority 2001, published 2005):
Ends that are not written are not given here. * marks the point of attachment. Biotin = O=C1N[C@H]2[C@H](CS[C@H]2CCCCC(=O)*)N1

Experiments:
Assay in all cases: G' assay (10 uM PL peptide), results of TABLE 7 and TABLE 12
Format in all cases: binding
[1] = target: T1, PDZ protein (GST-PDZ fusion) (Homo sapiens, UniProt O75970); conditions: PDZ MUPP-1, PDZ Domain 10
T1 construct: made in house; host or cells: E. coli (DH5alpha, BL21 or JM109)
Method in brief: (§1)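 Binding classes derive from A450 nm of bound biotin-tagged PL peptide. A score of 5 needs A450 above 4 in more than two repeats.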

[2] = target: T2, PDZ protein (GST-PDZ fusion) (Homo sapiens, UniProt P50479); conditions: PDZ LIM RIL, PDZ Domain 1
T2 construct: made in house; host or cells: E. coli (DH5alpha, BL21 or JM109)
T2 sequence (P50479 1-330): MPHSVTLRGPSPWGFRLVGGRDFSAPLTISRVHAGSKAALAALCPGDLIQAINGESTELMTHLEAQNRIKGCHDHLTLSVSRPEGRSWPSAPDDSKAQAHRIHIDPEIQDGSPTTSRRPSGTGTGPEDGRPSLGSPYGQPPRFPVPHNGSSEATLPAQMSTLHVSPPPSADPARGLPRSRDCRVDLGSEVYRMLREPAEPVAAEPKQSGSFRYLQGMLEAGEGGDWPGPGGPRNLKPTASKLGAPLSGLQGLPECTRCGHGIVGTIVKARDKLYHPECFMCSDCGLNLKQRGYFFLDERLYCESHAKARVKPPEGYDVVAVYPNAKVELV
Method in brief: as §1

[3] = target: T3, PDZ protein (GST-PDZ fusion) (Homo sapiens, UniProt Q02410)
T3 construct: made in house; host or cells: E. coli (DH5alpha, BL21 or JM109)
T3 sequence (Q02410 1-837): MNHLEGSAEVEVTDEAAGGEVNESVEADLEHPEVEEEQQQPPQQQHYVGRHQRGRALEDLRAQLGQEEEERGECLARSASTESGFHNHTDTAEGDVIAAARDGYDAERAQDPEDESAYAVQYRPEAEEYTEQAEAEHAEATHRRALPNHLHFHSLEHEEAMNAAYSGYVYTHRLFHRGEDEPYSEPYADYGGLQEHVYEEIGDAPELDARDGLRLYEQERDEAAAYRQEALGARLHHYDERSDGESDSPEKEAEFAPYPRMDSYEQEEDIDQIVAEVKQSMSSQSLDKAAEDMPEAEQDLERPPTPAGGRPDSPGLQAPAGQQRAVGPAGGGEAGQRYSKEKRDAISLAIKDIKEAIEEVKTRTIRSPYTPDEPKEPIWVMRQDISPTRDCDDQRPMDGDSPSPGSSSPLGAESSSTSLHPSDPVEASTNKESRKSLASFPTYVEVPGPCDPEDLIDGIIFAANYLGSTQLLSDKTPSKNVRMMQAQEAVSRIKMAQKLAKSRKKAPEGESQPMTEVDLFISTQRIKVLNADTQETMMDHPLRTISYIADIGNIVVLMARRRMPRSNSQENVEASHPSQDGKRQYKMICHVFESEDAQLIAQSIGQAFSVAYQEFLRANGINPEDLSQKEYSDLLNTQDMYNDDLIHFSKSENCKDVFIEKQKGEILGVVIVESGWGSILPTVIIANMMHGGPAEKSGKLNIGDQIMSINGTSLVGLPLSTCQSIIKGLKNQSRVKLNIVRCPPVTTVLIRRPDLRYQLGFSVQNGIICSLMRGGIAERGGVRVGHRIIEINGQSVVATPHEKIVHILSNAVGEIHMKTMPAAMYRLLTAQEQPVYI
Method in brief: as §1

[4] = target: T4, PDZ protein (GST-PDZ fusion) (Homo sapiens, UniProt Q8NI35); conditions: PDZ INADL, PDZ Domain 8
T4 construct: made in house; host or cells: E. coli (DH5alpha, BL21 or JM109)
Method in brief: as §1

[5] = target: T5, PDZ protein (GST-PDZ fusion) (Homo sapiens, UniProt O15018); conditions: PDZ AIPC, PDZ Domain 1
T5 construct: made in house; host or cells: E. coli (DH5alpha, BL21 or JM109)
Method in brief: as §1

[6] = target: T6, PDZ protein (GST-PDZ fusion) (Homo sapiens, UniProt O15085); conditions: PDZ KIAA0380, PDZ Domain 1
T6 construct: made in house; host or cells: E. coli (DH5alpha, BL21 or JM109)
Method in brief: as §1

[7] = target: T7, PDZ protein (GST-PDZ fusion) (Homo sapiens, UniProt Q13796); conditions: PDZ hAPXL, PDZ Domain 1
T7 construct: made in house; host or cells: E. coli (DH5alpha, BL21 or JM109)
Method in brief: as §1

[8] = target: T8, PDZ protein (GST-PDZ fusion) (Homo sapiens, UniProt Q6P0Q8)
T8 construct: made in house; host or cells: E. coli (DH5alpha, BL21 or JM109)
T8 sequence (Q6P0Q8 whole entry, the tested form may be a part): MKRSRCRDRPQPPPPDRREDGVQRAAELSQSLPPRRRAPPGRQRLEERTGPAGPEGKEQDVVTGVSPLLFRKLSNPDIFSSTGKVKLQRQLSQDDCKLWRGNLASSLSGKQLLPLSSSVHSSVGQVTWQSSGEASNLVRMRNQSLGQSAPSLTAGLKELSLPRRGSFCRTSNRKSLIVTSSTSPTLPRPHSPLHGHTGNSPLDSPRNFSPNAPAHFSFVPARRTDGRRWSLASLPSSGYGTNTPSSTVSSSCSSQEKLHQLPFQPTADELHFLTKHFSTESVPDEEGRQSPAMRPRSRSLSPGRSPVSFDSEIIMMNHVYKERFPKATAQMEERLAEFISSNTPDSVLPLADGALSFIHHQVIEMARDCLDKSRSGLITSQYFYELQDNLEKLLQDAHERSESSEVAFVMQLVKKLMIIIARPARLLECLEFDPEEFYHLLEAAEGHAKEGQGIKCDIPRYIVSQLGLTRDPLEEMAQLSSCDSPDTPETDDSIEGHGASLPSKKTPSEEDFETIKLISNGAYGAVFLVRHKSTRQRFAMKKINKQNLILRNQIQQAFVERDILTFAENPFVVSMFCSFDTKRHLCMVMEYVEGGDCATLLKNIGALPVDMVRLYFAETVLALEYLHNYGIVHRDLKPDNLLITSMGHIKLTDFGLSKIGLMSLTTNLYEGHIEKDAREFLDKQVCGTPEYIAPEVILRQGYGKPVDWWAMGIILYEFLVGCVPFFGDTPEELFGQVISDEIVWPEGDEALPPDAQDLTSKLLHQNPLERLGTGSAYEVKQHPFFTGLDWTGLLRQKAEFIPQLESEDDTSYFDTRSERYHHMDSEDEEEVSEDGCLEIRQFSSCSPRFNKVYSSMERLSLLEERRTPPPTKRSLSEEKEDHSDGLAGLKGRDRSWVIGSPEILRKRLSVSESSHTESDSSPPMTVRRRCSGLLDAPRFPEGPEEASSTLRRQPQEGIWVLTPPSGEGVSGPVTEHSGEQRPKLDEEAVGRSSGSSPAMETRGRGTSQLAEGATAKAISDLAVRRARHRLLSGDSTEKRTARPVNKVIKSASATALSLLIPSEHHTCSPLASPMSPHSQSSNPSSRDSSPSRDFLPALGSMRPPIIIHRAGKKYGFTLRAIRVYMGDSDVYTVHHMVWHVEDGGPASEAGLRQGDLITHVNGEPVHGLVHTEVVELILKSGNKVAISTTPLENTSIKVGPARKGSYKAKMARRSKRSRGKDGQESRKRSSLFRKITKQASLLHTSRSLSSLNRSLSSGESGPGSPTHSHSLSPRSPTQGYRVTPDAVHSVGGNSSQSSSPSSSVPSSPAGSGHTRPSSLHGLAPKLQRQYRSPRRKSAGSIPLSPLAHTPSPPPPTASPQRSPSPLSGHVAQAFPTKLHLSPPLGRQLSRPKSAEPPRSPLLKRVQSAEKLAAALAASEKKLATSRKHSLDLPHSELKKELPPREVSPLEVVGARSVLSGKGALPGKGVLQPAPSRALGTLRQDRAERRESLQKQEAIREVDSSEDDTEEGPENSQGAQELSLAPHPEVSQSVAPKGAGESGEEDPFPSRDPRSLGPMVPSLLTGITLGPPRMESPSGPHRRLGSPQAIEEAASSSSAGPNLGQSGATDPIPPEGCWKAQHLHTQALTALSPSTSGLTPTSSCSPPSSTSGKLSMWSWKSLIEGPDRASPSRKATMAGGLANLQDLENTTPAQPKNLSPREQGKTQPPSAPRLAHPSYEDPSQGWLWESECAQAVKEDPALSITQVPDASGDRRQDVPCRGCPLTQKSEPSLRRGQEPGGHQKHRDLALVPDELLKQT
Method in brief: as §1

[9] = target: T9, PDZ protein (GST-PDZ fusion) (Homo sapiens, UniProt Q9Y2H9); conditions: PDZ KIAA0973, PDZ Domain 1
T9 construct: made in house; host or cells: E. coli (DH5alpha, BL21 or JM109)
T9 sequence (Q9Y2H9 whole entry, the tested form may be a part): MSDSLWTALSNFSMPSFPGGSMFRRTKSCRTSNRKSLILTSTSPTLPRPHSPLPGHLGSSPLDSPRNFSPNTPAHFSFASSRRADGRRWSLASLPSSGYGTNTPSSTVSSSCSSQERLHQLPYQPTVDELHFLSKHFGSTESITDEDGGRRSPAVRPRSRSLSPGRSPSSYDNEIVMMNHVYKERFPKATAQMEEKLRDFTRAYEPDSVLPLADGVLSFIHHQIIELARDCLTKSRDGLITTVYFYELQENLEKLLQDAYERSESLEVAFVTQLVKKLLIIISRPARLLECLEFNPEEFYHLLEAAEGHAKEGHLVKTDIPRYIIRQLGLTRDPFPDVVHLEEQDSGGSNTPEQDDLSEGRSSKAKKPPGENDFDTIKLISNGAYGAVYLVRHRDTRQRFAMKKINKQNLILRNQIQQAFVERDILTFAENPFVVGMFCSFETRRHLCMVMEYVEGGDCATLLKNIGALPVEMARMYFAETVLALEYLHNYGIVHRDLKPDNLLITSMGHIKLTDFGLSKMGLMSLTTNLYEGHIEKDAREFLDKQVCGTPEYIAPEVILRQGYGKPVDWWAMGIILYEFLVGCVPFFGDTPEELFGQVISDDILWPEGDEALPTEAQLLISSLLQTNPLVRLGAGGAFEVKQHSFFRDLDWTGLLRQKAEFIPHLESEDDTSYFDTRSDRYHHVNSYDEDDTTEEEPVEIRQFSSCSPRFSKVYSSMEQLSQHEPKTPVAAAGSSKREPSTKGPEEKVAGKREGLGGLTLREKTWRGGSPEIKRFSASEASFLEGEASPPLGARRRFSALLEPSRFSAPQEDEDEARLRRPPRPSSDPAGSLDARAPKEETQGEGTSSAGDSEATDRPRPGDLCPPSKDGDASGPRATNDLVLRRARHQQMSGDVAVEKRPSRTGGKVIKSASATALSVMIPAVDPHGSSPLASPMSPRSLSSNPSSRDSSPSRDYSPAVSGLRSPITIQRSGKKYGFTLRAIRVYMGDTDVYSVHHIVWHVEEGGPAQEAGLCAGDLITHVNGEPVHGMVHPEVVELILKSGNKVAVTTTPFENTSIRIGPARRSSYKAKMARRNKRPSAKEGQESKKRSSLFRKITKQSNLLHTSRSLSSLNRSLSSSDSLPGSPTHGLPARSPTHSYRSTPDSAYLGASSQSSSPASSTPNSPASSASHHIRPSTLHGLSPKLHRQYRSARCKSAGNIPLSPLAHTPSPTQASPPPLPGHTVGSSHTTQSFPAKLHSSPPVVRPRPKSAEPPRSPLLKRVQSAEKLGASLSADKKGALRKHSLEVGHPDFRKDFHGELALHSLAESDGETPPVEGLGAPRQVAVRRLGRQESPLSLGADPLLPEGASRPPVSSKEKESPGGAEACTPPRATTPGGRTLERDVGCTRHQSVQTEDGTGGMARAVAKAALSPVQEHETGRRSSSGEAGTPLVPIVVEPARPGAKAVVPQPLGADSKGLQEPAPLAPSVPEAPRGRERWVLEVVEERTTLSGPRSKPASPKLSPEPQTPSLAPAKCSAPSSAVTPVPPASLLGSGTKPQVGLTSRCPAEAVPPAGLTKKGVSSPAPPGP
Method in brief: as §1

[10] = target: T10, PDZ protein (GST-PDZ fusion) (Homo sapiens, UniProt Q12959); conditions: PDZ DLG1, PDZ Domain 1, 2
T10 construct: made in house; host or cells: E. coli (DH5alpha, BL21 or JM109)
Method in brief: as §1

[11] = target: T11, PDZ protein (GST-PDZ fusion) (Homo sapiens, UniProt Q5T2W1); conditions: PDZ PDZK1, PDZ Domain 2, 3, 4
T11 construct: made in house; host or cells: E. coli (DH5alpha, BL21 or JM109)
T11 sequence (Q5T2W1 1-519): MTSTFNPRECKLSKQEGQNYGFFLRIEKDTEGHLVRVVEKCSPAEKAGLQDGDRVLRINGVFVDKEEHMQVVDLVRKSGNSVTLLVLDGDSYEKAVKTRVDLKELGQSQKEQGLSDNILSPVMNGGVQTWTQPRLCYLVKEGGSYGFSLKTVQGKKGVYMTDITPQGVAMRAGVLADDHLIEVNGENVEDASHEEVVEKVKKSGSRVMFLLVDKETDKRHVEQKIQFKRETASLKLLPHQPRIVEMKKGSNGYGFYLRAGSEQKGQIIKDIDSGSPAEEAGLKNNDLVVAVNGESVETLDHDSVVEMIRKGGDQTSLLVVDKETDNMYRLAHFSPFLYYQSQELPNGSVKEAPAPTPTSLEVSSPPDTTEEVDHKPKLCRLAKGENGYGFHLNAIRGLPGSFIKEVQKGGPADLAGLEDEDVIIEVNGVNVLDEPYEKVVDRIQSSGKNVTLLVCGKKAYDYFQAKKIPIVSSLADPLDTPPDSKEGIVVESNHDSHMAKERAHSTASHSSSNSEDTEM
Method in brief: as §1

[12] = test system: PDZ protein (GST-PDZ fusion)
Method in brief: as §1

[13] = target: T12, PDZ protein (GST-PDZ fusion) (Homo sapiens, UniProt Q07157)
T12 construct: made in house; host or cells: E. coli (DH5alpha, BL21 or JM109)
T12 sequence (Q07157 whole entry, the tested form may be a part): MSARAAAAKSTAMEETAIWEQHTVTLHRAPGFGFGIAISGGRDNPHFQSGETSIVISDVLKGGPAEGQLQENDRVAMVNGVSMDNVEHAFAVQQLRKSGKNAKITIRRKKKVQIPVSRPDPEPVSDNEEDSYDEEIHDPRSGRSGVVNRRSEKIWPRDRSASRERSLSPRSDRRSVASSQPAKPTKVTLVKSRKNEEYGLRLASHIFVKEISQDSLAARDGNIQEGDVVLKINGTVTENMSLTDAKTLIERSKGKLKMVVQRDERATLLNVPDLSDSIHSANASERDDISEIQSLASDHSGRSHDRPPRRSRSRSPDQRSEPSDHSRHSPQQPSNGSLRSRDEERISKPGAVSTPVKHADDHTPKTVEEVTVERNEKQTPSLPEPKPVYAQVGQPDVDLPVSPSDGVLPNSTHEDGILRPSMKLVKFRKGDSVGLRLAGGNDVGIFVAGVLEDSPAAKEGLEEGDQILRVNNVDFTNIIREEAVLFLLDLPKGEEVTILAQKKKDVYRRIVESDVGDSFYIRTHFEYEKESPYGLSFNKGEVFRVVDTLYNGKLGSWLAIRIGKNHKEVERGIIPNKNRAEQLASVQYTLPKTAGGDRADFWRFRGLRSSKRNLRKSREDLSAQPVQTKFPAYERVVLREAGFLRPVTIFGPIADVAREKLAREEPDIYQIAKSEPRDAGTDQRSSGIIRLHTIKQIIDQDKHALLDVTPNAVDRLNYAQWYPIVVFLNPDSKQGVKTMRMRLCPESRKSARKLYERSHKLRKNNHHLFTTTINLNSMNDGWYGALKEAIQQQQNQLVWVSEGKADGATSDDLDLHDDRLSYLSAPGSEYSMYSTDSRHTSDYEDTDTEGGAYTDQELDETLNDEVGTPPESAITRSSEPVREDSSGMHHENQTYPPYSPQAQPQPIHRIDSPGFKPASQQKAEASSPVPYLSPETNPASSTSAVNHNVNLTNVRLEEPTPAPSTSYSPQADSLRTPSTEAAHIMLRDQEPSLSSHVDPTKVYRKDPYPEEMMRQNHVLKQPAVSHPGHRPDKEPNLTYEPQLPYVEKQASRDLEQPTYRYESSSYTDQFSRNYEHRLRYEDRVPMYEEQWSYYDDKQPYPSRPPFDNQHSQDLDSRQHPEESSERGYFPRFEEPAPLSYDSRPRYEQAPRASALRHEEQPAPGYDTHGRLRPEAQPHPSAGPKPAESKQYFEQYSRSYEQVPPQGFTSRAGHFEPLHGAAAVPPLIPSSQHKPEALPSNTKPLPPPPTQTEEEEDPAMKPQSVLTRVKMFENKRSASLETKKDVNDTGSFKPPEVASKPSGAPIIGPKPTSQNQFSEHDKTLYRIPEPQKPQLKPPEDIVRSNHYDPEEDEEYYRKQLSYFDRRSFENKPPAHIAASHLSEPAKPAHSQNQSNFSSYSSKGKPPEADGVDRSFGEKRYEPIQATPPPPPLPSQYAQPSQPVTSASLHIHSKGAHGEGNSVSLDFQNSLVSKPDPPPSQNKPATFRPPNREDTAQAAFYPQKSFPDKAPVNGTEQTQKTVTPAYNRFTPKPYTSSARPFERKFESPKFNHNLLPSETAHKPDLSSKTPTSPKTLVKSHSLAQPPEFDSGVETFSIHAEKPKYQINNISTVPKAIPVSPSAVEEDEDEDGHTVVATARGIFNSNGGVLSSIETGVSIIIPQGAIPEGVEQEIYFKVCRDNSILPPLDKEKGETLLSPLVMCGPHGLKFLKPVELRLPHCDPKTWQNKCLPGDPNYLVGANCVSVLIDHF
Method in brief: as §1

[14] = target: T13, PDZ protein (GST-PDZ fusion) (Homo sapiens, UniProt Q9UDY2); conditions: PDZ ZO-2, PDZ Domain 2
T13 construct: made in house; host or cells: E. coli (DH5alpha, BL21 or JM109)
T13 sequence (Q9UDY2 1-1190): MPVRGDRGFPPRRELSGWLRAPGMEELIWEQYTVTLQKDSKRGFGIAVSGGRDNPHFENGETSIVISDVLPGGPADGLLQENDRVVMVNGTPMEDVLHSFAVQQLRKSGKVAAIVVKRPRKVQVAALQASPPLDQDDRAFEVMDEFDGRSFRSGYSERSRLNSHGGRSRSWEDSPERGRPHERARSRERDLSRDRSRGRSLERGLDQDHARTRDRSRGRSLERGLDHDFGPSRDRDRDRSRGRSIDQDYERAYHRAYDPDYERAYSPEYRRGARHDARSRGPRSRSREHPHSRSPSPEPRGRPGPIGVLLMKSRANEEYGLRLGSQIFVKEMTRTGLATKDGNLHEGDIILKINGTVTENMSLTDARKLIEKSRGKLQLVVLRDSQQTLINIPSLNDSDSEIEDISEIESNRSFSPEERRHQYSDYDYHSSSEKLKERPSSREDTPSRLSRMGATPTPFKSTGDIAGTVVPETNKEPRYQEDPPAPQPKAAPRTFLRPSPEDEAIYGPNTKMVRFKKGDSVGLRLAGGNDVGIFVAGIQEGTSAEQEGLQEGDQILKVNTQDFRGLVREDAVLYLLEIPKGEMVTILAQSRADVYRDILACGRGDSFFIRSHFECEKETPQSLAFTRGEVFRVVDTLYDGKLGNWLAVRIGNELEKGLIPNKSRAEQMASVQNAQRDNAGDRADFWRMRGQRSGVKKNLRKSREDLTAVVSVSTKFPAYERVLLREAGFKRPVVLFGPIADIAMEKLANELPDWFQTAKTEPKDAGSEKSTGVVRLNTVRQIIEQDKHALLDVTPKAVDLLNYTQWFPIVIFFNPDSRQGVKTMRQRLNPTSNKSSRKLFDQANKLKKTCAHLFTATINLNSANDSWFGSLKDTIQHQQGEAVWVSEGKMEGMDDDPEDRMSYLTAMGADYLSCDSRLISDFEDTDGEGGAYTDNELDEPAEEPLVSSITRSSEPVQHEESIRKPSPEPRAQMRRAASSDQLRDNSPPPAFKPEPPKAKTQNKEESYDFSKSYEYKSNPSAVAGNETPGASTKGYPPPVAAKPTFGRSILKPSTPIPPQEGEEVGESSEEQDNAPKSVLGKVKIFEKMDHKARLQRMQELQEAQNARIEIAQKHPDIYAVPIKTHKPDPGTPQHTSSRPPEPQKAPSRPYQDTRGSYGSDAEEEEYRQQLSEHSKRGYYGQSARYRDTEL
Method in brief: as §1

[15] = target: T14, PDZ protein (GST-PDZ fusion) (Homo sapiens, UniProt Q9P202); conditions: PDZ KIAA1526, PDZ Domain 1
T14 construct: made in house; host or cells: E. coli (DH5alpha, BL21 or JM109)
T14 sequence (Q9P202 1-907): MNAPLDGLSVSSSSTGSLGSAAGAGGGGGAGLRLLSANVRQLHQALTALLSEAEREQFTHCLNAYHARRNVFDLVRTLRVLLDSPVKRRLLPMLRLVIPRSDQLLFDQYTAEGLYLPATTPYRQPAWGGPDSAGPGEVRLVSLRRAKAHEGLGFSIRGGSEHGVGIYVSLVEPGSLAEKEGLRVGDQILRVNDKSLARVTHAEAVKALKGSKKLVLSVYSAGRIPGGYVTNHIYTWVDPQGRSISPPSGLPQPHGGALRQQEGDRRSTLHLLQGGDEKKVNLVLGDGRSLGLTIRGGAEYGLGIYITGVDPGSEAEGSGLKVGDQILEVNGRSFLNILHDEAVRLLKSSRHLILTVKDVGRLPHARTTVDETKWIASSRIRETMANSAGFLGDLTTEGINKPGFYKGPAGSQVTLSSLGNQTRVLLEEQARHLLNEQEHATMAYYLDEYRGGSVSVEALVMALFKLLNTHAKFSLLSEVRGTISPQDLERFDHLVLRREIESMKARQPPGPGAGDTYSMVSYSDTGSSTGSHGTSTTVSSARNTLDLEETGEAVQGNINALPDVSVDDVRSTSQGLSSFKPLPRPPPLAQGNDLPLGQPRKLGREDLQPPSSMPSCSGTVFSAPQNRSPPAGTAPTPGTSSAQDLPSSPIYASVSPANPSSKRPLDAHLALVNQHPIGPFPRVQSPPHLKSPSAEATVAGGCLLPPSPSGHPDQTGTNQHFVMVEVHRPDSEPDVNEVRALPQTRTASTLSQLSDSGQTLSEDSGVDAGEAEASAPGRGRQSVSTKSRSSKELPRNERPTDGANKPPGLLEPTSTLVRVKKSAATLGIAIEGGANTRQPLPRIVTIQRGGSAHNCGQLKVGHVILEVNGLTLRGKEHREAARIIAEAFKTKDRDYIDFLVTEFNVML
Method in brief: as §1

For “INSVGSTASSSQPLLVHDDV (Biotin-INSVGSTASSSQPLLVHDDV) [c-kit receptor]”, the Classification [1] was 1 (A450 nm 0-1), the Classification [2] was 1 (A450 nm 0-1) and the Classification ([3]; PDZ Mint 1, PDZ Domain 2) was 1 (A450 nm 0-1). For the same substance, the Classification [4] was 1 (A450 nm 0-1).

With “SSKSKSSEESQTFFGLYKL (Biotin-SSKSKSSEESQTFFGLYKL) [Fas Ligand]” the Classification [5] was 2 (A450 nm 1-2), the Classification [6] was 3 (A450 nm 2-3) and the Classification ([3]; PDZ Mint 1, PDZ Domain 1, 2) was 4 (A450 nm 3-4). The Classification [7] was 2 (A450 nm 1-2), the Classification ([8]; PDZ KIAA807) was 5 (A450 nm of 4 more than 2× repeated) and the Classification ([8]; PDZ KIAA0807(S), PDZ Domain 1) was 5 (A450 nm of 4 more than 2× repeated). For the same substance, the Classification [9] was 2 (A450 nm 1-2).

SSR4_HUMAN (EALQPEPGRKRIPLTRTTTF) was tested, and the Classification ([3]; PDZ Mint 1, PDZ Domain 1, 2) was 1 (A450 nm 0-1), the Classification [10] was 1 (A450 nm 0-1) and the Classification [11] was 1 (A450 nm 0-1). The Classification ([8]; PDZ KIAA807) was 1 (A450 nm 0-1), the Classification ([12]; PDZ BAI-1, PDZ Domain 4) was 1 (A450 nm 0-1) and the Classification ([12]; PDZ BAI-1, PDZ Domain 5) was 1 (A450 nm 0-1).

With “PSSRASSRASSRPRPDDLEI (Biotin-PSSRASSRASSRPRPDDLEI) [CX43]” the Classification ([13]; PDZ ZO-1, PDZ Domain 2) was 2 (A450 nm 1-2), the Classification [14] was 1 (A450 nm 0-1) and the “PDZ proteins bound by the PL (TABLE 7)” value ([12]; as cited in the text from TABLE 7) was “ZO-2 and ZO-1”.

With “TEGNESSEATSPVNAIYSLA (Biotin-TEGNESSEATSPVNAIYSLA) [neurofascin (chicken)]” the Classification ([13]; PDZ ZO-1, PDZ Domain 1) was 1 (A450 nm 0-1), the Classification ([13]; PDZ ZO-1, PDZ Domain 2) was 1 (A450 nm 0-1) and the Classification [15] was 1 (A450 nm 0-1). The Classification [14] was 1 (A450 nm 0-1).
